From patent US7572434B2, “Method for assessing the effect of a drug on long term memory formation” (Cold Spring Harbor Laboratory, priority 1994, dated 2009)

T1: dCREB2-a (UniProt Q9VWW0)
T1 sequence: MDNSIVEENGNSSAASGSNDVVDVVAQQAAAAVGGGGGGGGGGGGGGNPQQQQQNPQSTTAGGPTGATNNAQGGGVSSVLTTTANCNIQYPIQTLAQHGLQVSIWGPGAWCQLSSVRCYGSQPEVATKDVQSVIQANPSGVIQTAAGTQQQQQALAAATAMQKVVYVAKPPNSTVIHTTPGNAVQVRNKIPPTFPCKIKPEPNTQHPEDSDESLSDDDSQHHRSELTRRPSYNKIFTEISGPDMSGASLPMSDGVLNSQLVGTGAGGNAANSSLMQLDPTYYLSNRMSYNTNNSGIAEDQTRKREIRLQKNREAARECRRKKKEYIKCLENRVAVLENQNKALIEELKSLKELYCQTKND


How the values were obtained:
dCREB2-a = molecular target: T1, dCREB2-a; assay: cell_activity; conditions: F9 cells; dCREB2-a plus PKA relative to PKA alone
[1] = test system: PKA-responsive transcription (CRE-directed reporter) in F9 cells; assay: PKA-responsive transcription from the CRE-containing D(-71) CAT reporter in transiently transfected F9 cells; format: cell-based; conditions: cotransfected with dCREB2-a, PKA and reporter
Procedure: Undifferentiated F9 cells were maintained and transfected using the calcium phosphate method as described in Darrow, A. L. et al., “Maintenance and Use of F9 Teratocarcinoma Cells”, In Meth. Enzymol., v. 190 (1990), except that chloroquine was added to […] immediately before transfection and precipitates were washed off ten hours after transfection, at which time the dishes received fresh chloroquine-free medium. Amounts of DNA in transfections were made equivalent by adding RSV-0 where required. Cells were harvested 30 hours after transfection. Extracts were made by three cycles of freeze/thawing, with brief vortexing between cycles. Particulate matter was cleared from extracts by ten minutes of centrifugation in the cold. β-galactosidase assays were performed as described in Miller, J. H., Experiments in Molecular Genetics, Cold Spring Harbor Laboratory, Cold Spring Harbor, N.Y., 1972. CAT assays were performed as described in Sheen, J. Y. and B. Seed, Gene, 67: 271-277 (1988) using aliquots of extract heat-treated at 65° C. for ten minutes and centrifuged for ten minutes to remove debris. Results reported are from three experiments run on different days with at least three dishes per condition within each experiment. Error bars represent standard error of the mean, with error propagation taken into account (Grossman, M. and H. W. Norton, J. Hered., 71: 295-297 (1980)).
F9 cells were transiently transfected with 10 μg of D(−71) CAT plasmid as a CRE-directed reporter. 5 μg of RSV-βgal reporter was included in each dish as a normalization control for transfection efficiency. Different groups received 8 μg of dCREB2-a expression vector and 4 μg of PKA expression vector, separately or in combination. Results are expressed as CAT/Pgal enzyme activity ratios, standardized to values obtained with PKA-transfected dishes. […]
Two different dCREB2 isoforms, dCREB2-a and dCREB2-b, have opposite roles in PKA-responsive transcription. […] CREB-dependent changes in gene expression were measured using a cotransfected construct that has a CRE-containing promoter fused to a reporter gene.

Row | Molecule | activity (dCREB2-a) | effect on PKA-dependent activation by dCREB2-a [1]
1 | D(-71) CAT rat somatostatin promoter CRE fragment | 5.4 fold | –
2 | dCREB2-b: Drosophila dCREB2 isoform lacking exons 2 and 6, antagonist of dCREB2-a, expressed from RSV-dCREB2-b (protein) MDNSIVEENGNSSAASGSNDVVDVVAQQAAAAVGGGGGGGGGGGGGNPQQQQQNPQSTTAGGPTGATNNAQGGGVSSVLTTTANCNIQYPIQTLAQHGLQVQSVIQANPSGVIQTAAGTQQQQQALAAATAMQKVVYVAKPPNSTVIHTTPGNAVQIPPTFPCKIKPEPNTQHPEDSDESLSDDDSQHHRSELTRRPSYNKIFTEISGPDMSDNSGIAEDQTRKREIRLQKNREAARECRRKKKEYIKCLENRVAVLENQNKALIEELKSLKELYCQTKND | – | nearly complete block
3 | mLZ-dCREB2-b: leucine-zipper mutant of dCREB2-b; middle two leucines converted to valines (protein) MDNSIVEENGNSSAASGSNDVVDVVAQQAAAAVGGGGGGGGGGGGGNPQQQQQNPQSTTAGGPTGATNNAQGGGVSSVLTTTANCNIQYPIQTLAQHGLQVQSVIQANPSGVIQTAAGTQQQQQALAAATAMQKVVYVAKPPNSTVIHTTPGNAVQIPPTFPCKIKPEPNTQHPEDSDESLSDDDSQHHRSELTRRPSYNKIFTEISGPDMSDNSGIAEDQTRKREIRLQKNREAARECRRKKKEYIKCLENRVAVVENQNKAVIEELKSLKELYCQTKND | – | failed to block
